# How the values were obtained:
# [1] = molecular target: T1, human GPC2 expressed on the cell surface (human, UniProt Q8N158 24-554); assay: flow cytometry on GPC2-positive neuroblastoma cell lines LAN1 and IMR5, CT5 at 10 ng/ml, counts normalized to mode
# T1 construct: whole, on cells; also called cell-surface GPC2; GPC2 on LAN1, IMR5, G10, F8, SKNBE2 and NBEB cells
# T1 sequence (looked up): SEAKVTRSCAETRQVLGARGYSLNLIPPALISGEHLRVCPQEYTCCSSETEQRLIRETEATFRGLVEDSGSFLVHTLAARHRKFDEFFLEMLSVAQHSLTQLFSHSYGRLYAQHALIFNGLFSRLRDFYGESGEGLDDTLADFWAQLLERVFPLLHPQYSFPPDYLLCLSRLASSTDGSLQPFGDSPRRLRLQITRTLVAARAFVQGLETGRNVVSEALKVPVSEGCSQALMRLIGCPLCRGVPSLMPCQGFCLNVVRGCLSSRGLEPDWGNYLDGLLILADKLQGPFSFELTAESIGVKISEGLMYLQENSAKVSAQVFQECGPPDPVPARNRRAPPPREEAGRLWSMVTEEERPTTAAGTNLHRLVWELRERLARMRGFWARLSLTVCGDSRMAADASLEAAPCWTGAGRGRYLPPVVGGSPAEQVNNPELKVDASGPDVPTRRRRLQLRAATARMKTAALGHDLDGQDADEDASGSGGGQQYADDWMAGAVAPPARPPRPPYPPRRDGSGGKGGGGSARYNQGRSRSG
# [2] = molecular target: T2, recombinant human glypican-6 (human, UniProt Q9Y625 24-529); assay: ELISA on recombinant glypican proteins, absorbance OD450nm
# T2 construct: also called human GPC6; huGPC6
# T2 sequence (looked up): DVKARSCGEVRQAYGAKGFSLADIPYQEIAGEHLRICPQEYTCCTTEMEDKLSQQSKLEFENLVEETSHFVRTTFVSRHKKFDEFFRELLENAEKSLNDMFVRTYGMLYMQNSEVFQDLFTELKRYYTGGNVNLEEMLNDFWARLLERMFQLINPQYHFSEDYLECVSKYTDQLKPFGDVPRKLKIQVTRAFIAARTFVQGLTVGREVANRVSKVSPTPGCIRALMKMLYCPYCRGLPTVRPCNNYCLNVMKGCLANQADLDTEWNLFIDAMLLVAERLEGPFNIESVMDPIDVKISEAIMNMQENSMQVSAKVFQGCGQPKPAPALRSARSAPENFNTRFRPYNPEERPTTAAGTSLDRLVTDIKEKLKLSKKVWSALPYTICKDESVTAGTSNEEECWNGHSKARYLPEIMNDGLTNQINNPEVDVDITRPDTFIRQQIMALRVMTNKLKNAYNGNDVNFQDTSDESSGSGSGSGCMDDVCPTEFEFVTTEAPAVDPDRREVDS
# [3] = molecular target: T3, recombinant human glypican-3 (human, UniProt P51654 25-559); assay: as above
# T3 construct: also called human GPC3; huGPC3
# [4] = molecular target: T4, recombinant human glypican-2 (GPC2) (human, UniProt Q8N158 24-554, limits assumed); assay: as above
# T4 construct: also called human GPC2; huGPC2
# T4 sequence (looked up): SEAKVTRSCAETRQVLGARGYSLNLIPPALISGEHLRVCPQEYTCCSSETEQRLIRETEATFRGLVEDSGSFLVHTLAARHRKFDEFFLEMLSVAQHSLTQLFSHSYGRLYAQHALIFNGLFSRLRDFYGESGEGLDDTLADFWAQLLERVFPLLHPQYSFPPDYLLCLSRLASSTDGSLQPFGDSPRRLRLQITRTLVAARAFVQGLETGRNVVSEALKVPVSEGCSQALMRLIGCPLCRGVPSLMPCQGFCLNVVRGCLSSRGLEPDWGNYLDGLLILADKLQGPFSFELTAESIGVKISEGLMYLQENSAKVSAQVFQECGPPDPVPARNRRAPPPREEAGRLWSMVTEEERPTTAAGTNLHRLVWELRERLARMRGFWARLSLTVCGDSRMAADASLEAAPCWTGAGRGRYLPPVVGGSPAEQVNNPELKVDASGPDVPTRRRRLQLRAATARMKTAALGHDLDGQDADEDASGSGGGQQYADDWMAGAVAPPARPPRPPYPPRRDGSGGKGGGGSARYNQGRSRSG
# [5] = molecular target: T5, recombinant human glypican-5 (human, UniProt P78333 25-554, limits assumed); assay: as above
# T5 construct: also called huGPC5
# T5 sequence (looked up): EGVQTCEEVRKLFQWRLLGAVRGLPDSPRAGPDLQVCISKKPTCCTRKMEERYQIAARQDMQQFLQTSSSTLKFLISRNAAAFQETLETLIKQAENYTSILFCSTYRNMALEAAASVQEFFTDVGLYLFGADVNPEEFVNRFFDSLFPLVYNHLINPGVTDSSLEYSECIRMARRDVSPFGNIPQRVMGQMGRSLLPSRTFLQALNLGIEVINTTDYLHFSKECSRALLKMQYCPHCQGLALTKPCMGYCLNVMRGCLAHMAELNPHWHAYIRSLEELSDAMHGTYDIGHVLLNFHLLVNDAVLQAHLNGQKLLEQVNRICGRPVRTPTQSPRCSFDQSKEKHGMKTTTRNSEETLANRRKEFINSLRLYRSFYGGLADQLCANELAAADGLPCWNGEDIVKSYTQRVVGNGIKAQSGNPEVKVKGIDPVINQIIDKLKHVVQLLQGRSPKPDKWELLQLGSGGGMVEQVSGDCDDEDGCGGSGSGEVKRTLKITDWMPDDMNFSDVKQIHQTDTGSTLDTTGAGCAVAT
# [6] = molecular target: T6, Human GPC2-His (human, UniProt Q8N158 24-554)
# T6 sequence: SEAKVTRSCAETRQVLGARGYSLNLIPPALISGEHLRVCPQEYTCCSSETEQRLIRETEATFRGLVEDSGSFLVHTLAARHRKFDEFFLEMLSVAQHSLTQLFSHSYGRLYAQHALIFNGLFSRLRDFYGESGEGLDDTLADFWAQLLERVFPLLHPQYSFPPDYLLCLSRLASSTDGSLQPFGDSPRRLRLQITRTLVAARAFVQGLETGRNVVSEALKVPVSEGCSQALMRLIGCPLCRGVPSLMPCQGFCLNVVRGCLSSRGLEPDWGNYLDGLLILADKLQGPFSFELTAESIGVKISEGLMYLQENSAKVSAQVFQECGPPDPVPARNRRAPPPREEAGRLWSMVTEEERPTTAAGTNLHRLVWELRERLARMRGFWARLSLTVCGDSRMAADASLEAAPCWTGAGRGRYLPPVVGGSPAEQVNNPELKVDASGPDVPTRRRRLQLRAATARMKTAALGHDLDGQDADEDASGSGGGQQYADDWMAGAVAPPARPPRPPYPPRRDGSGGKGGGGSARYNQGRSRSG
# [7] = molecular target: T2, recombinant human glypican-6; assay: ELISA on recombinant human glypicans and mouse GPC2, absorbance OD450nm
# [8] = molecular target: T7, recombinant mouse GPC2 (mouse, UniProt Q8BKV1 22-556, limits assumed); assay: as above
# T7 construct: also called msGPC2
# T7 sequence (looked up): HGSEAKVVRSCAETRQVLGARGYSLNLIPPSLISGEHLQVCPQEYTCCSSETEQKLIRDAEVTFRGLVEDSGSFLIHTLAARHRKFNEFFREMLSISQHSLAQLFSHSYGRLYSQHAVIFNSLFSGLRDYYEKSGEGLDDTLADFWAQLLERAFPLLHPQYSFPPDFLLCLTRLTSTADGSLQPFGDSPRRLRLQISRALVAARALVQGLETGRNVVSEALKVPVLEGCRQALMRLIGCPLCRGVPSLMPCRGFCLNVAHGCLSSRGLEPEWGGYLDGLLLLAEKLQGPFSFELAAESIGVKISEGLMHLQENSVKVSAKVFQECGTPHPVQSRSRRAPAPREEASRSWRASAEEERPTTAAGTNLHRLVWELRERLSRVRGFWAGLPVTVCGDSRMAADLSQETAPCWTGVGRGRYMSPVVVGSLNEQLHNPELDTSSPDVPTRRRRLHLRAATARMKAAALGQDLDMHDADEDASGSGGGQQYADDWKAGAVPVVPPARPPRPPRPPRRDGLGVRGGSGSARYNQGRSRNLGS
# [9] = molecular target: T5, recombinant human glypican-5; assay: as above
# [10] = molecular target: T8, recombinant human glypican-4 (human, UniProt O75487 19-529, limits assumed); assay: as above
# T8 construct: also called huGPC4
# T8 sequence (looked up): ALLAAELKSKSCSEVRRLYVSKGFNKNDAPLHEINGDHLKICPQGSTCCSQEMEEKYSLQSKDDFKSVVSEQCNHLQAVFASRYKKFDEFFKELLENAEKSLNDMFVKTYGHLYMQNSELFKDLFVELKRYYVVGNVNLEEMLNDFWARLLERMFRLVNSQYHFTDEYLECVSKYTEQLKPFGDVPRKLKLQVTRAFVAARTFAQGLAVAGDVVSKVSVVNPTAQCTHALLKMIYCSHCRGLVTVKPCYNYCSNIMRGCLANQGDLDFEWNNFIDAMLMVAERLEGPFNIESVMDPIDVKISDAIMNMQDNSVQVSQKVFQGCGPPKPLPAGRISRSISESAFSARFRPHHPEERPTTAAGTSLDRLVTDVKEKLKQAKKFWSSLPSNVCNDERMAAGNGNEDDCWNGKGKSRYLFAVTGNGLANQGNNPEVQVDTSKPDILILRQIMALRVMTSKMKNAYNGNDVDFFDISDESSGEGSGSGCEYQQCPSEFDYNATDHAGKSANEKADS
# [11] = molecular target: T9, recombinant human glypican-1 (human, UniProt P35052 24-530); assay: as above
# T9 construct: also called huGPC1
# T9 sequence (looked up): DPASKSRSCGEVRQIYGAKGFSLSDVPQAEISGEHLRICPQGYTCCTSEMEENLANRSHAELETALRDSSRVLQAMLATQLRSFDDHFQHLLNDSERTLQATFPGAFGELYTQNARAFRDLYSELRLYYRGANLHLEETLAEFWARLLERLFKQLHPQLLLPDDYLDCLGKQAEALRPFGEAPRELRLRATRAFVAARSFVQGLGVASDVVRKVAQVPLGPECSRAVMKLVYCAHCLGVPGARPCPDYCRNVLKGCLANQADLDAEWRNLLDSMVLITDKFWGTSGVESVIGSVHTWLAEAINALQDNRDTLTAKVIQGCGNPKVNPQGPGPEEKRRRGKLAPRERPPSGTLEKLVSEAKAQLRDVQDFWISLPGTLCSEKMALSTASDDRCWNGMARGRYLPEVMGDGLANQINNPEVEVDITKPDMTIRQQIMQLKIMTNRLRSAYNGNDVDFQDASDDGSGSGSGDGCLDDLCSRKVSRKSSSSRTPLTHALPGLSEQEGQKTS
# [12] = molecular target: T4, recombinant human glypican-2 (GPC2); assay: Octet kinetic analysis (BLI), FIG. 1C
# T3 sequence (P51654 25-559 limits assumed): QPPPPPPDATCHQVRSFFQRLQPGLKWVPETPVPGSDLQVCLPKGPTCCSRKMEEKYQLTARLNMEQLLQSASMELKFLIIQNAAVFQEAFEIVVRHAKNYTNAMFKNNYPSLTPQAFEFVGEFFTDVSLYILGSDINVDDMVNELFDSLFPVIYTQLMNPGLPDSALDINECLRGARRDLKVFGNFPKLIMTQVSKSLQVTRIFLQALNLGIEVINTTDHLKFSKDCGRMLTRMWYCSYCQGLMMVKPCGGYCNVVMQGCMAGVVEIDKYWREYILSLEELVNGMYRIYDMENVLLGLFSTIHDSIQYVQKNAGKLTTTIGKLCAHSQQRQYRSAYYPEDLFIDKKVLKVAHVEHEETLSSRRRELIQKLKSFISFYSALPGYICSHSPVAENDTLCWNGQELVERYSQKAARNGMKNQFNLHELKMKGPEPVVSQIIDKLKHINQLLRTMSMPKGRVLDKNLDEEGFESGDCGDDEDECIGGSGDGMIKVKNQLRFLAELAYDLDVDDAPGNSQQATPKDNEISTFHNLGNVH
binder,measurement,setting,value
"CT5 antibody (antibody, IgG1, V domains shown) VH: EVKLVESGGGLVQSGRSLRLSCATSGFTFSDFYMEWVRQAPGKGLEWIVASRDKANDYTTAYSASVKGRFIVSRDTSQSILYLQMNALRAEDTAIYYCVRDFYDYDEAYWGQGTLVTVS VL: DIQMTQSPSSLSASLGGTVTITCKASEDINNYIAWYQHKPGKGPRLLIQYTSTLQPGIPSRFSGSGSGRDYSLSISNLEPEDIATYYCLQYDILWTFGGGTKLEIK",binding result,[1],binds
same,binding result,[2],no binding
same,binding result,[3],no binding
same,binding result,[4],binds
same,binding result,[5],no binding
CT3-T20 immunotoxin (other) EVQLQQSGPELVKPGASVKMSCKASRFTFTDYNIHWVKQSPGKTLEWIGYINPNNGDIFYKQKFNGKATLTINKSSNTAYMELRSLTSEDSAVYYCVRSSNIRYTFDRFFDVWGTGTTVTVSSGGGGSGGGGSGGGGSENVLTQSPAIMSASLGEKVTMSCRASSSVNYIYWYQQKSDASPKLWIYYTSNLAPGVPARFSGSGSGNSYSLTISSMEGEDAATYYCQQFSSSPSTFGTGTKLELKKLKASGGRHRQPRGWEQLGGGGGSPTGAEFLGDGGDVSFSTRGTQNWTVERLLQAHAQLEERGYVFVGYHGTALEAAQSIVFGGVRARSQDLDAIWRGFYIAGDPAHAYGYAQDQEPDARGRIANGALLRVYVPASSLPGFYRTSLTLAAPEAAGEVERLIGHPLPLRLDAITGPEEEGGREETILGWPLAERTVVIPSAIPTDPRNVGGDLDPSSIPDKEQAISALPDYASQPGKPPREDLK,Kd,[6],0.16 nM
CT3-PE38 immunotoxin (other) EVQLQQSGPELVKPGASVKMSCKASRFTFTDYNIHWVKQSPGKTLEWIGYINPNNGDIFYKQKFNGKATLTINKSSNTAYMELRSLTSEDSAVYYCVRSSNIRYTFDRFFDVWGTGTTVTVSSGGGGSGGGGSGGGGSENVLTQSPAIMSASLGEKVTMSCRASSSVNYIYWYQQKSDASPKLWIYYTSNLAPGVPARFSGSGSGNSYSLTISSMEGEDAATYYCQQFSSSPSTFGTGTKLELKSAAKASGGPEGGSLAALTAHQACHLPLETFTRHRQPRGWEQLEQCGYPVQRLVALYLAARLSWNQVDQVIRNALASPGSGGDLGEAIREQPEQARLALTLAAAESERFVRQGTGNDEAGAANGPADSGDALLERNYPTGAEFLGDGGDVSFSTRGTQNWTVERLLQAHRQLEERGYVFVGYHGTFLEAAQSIVFGGVRARSQDLDAIWRGFYIAGDPALAYGYAQDQEPDARGRIRNGALLRVYVPRSSLPGFYRTSLTLAAPEAAGEVERLIGHPLPLRLDAITGPEEEGGRLETILGWPLAERTVVIPSAIPTDPRNVGGDLDPSSIPDKEQAISALPDYASQPGKPPREDLK,Kd,[6],0.22 nM
"CT3 antibody (antibody, IgG1, V domains shown, also called anti-GPC2 antibody CT3) VH: EVQLQQSGPELVKPGASVKMSCKASRFTFTDYNIHWVKQSPGKTLEWIGYINPNNGDIFYKQKFNGKATLTINKSSNTAYMELRSLTSEDSAVYYCVRSSNIRYTFDRFFDVWGTGTTVTVSS VL: ENVLTQSPAIMSASLGEKVTMSCRASSSVNYIYWYQQKSDASPKLWIYYTSNLAPGVPARFSGSGSGNSYSLTISSMEGEDAATYYCQQFSSSPSTFGTGTKLELK",binding result,[7],no binding
same,binding result,[8],no binding
same,binding result,[9],no binding
same,binding result,[10],no binding
same,binding result,[11],no binding
same,Kd,[12],0.5 nM
same,binding result,[3],no binding

# From patent US20210292428A1 (US Dept. of Health and Human Services, published 2021)
